Assay results reported in IntAct's records for PubMed 29477555.

B1: Serine protease HTRA3 (Homo sapiens), P83110-1 (parent)
chain: MQARALLLAALAALALAREPPAAPCPARCDVSRCPSPRCPGGYVPDLCNCCLVCAASEGEPCGGPLDSPCGESLECVRGLCRCRWSHAVCGTDGHTYANVCALQAASRRALQLSGTPVRQLQKGACPLGLHQLSSPRYKFNFIADVVEKIAPAVVHIELFLRHPLFGRNVPLSSGSGFIMSEAGLIITNAHVVSSNSAAPGRQQLKVQLQNGDSYEATIKDIDKKSDIATIKIHPKKKLPVLLLGHSADLRPGEFVVAIGSPFALQNTVTTGIVSTAQREGRELGLRDSDMDYIQTDAIINYGNSGGPLVNLDGEVIGINTLKVTAGISFAIPSDRITRFLTEFQDKQIKDWKKRFIGIRMRTITPSLVDELKASNPDFPEVSSGIYVQEVAPNSPSQRGGIQDGDIIVKVNGRPLVDSSELQEAVLTESPLLLEVRRGNDDLLFSIAPEVVM
B2: Serine protease HTRA3 (Homo sapiens), P83110-2 (parent)
chain: MQARALLLAALAALALAREPPAAPCPARCDVSRCPSPRCPGGYVPDLCNCCLVCAASEGEPCGGPLDSPCGESLECVRGLCRCRWSHAVCGTDGHTYANVCALQAASRRALQLSGTPVRQLQKGACPLGLHQLSSPRYKFNFIADVVEKIAPAVVHIELFLRHPLFGRNVPLSSGSGFIMSEAGLIITNAHVVSSNSAAPGRQQLKVQLQNGDSYEATIKDIDKKSDIATIKIHPKKKLPVLLLGHSADLRPGEFVVAIGSPFALQNTVTTGIVSTAQREGRELGLRDSDMDYIQTDAIINYGNSGGPLVNLDGEVIGINTLKVTAGISFAIPSDRITRFLTEFQDKQIKAPSLAVH

Variants of: B1
Details: with tcpa_human TCP1, P17987
Target sequence in this assay (P17987 whole entry): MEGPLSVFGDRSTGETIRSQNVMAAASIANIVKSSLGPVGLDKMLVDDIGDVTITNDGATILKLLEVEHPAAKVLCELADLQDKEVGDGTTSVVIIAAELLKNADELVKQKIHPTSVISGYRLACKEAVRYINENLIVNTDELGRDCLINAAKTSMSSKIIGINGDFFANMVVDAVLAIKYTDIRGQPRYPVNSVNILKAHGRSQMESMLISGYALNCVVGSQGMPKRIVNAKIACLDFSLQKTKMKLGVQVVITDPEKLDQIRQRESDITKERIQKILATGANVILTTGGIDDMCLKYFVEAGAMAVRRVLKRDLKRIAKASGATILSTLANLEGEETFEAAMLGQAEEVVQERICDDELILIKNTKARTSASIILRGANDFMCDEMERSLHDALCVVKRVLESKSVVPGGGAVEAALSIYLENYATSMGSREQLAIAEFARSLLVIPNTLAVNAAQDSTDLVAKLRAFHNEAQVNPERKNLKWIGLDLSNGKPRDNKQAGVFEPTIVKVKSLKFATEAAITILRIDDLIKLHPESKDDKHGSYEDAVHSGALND

| Variant | effect of a mutation on the interaction |
| --- | --- |
| S305A | decreasing interaction strength |

Variants of: B2
Details: with tcpa_human TCP1, P17987
Target sequence in this assay (P17987 whole entry): as above

| Variant | effect of a mutation on the interaction |
| --- | --- |
| S305A | decreasing interaction strength |
